B1: TPR 5TU (parent)
chain: GGAUCUUCUCGAUCUAACAAAAAAGACAAAUCUGCCACAAAGCUUGAGAGCAUCUUCGGAUGCAGAGGCGGCAGCCUUCGGUGGCGCGAUAGCGCCAACGUUCUCAACUAUGACACGCAAAACGCGUGCUCCGUUGAAUGGAGUUUAUCAUG

The values below come from the RNAGym collection of RNA variant scans (doi:10.1073/pnas.2313332121).

Fewer inactive variants are shown than the library holds. Some results are limits rather than exact numbers.

The variants in this data set derive from B1. As to the kind of experiment: polymerase ribozyme fitness, log enrichment relative to wild type (log ratio); higher = more active; in vitro selection for triplet polymerase activity. In a few lines:
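Each subunit of a heterodimeric triplet polymerase ribozyme was mutagenized into a library by PCR, transcribed, and subjected to one round of in vitro selection, run in triplicate. Libraries were annealed with a biotinylated primer, the partner subunit and triplets, incubated frozen at −7 °C, and extended constructs were gel-excised, captured on streptavidin beads and recovered by RT-PCR. Input and output libraries were sequenced on Illumina, keeping genotypes with ≥10 input reads and ≥1 read per output. Fitness is log base 2 of genotype enrichment divided by wild-type enrichment, from inverse-variance-weighted replicate averages.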
As to GGAUCUUCUCGAUCUGACAAAAAAGACAAAUCUGCUACAAAGCUUGAGCGCAUCUUCGGAUGCAGAGGCGGCAGCCUUCGGUGGCGCAAUAGGGCCAACGUUCUCAUCUAUGACACGCAAAACGCGUGCUCCGUUGAAUUGACUUUAUCAUG [A16G C36U A49C G88A C93G A107U G140U G143C], the “polymerase ribozyme fitness (log ratio)” value is no more than -4.2.
For the variant GGAUCUUCUCGAUCUGACAAAAAAGACAAAUGUGCCACAAUGCUUGAGAGCAUCUUCGGAUGCAGAGGCGGCAGCCUUCCGUGGCGCGAUAGCGCCAAUGUUCUCAACUUUGACACGCAAAACGCGAGCUCCGUUGAAUGGAAUUUAUCAUG [A16G C32G A41U G80C C99U A110U U127A G143A], the “polymerase ribozyme fitness (log ratio)” value was no more than -4.2.
Under GGAUCUUCUCGAUCUGACAAAAAAGACAAAUCUGCCACAAAGAUUGAGAGCAUCUUGGUAUGCAGAGGCUGCAGCCUUCGGUGGCGCUAUAGCGCCAAUGUUCUCAGCUAUGACACGCAAAACGCGUGCUCCGUUGAAUGGAGUUUAUCAUG [A16G C43A C57G G59U G70U G88U C99U A107G] stands no more than -4.2; under GGAUCUUCUCGAUCUGACAAAAAAGACAAAUCUGGCACAAAGCUUGAGAGCAACUUUGGAUGCAGAGGCGGCAGCCUUCGGUGUCGCGAUAGCGCCAACGUUCUGAACUAUGACACGCAAAACGCGUGCUCCGUUGAAUGGAGUUUAUCUUG [A16G C35G U53A C57U G84U C105G A150U], no more than -4.2.
Under GGAUCUUCUCGAUCUGACAAAAAAGACAAAUCUGCCACAAAGGUUGAGAGCAUCUUUGGAUGCAGAGGCGGCAGCCUUCGGUGAAGCGAUCGCGCCAACGUUCUCAACUAUGACACGCAAAACGCGCGCUCCGUUGAAUGGAGUUUAUCAUG [A16G C43G C57U G84A C85A A91C U127C] stands no more than -4.2; under GGAUCUUCUCGAUCUGACAAAAAAGAUAAAUCUGCCACAAAGCUUGAGAGCAUCUUCGGAUGCAGAGGCGGCAGCCUUCGGUGGCGCGAUAGCGCCAACGUUCUCAACUAUGACACGCAAAACGCGUGCUCCGUUGAAUGGAGUUUAUCAUG [A16G C27U], -2.
With GGAUCUUCUCGAUCUGACAAAAAAGACAAAUCUGCCAUAAAGCUUGAGACCAUCAUUGGAUGCAGAGGCGGCAGCCUUCGGUGGGGCGAUAGCGCCAACGUUCUCAACUAUGACACGCAGAACGCGUGCUCCGUUGUAUGGACUUUAUCAUG [A16G C38U G50C U55A C57U C85G A120G A137U G143C] the figure was no more than -4.2; with GGAUCUUCUCGAUCUGACAAAAAAGAGAAAUCUGCCACAAAGCAUGAGAGCAUCUUCGGAUGCAGAGGCGGCAGCCUUGGGUGGCGCGAUAGCGCCAACGUUCUCAACUAUGACACGCAAAACGCGUGCUCCGUUGAAUGGAGUUUAUCAUG [A16G C27G U44A C79G], no more than -4.2; with GGAUCUUCUCGAUCUGACAAAAAAGACAAAUCUGCCAAAAAGCUUGAGAGCAUCUGCGGAUGCAGAGGCGGCAGCCUUCGGUGGCGCGAUAGCGCUAACGUUUUCAACUAUGACACGCAAAACGCGUGCUCCGUUGAAUGGAGUUUAUGAUG [A16G C38A U56G C96U C103U C149G], no more than -4.2.
For the variant GGAUCUUCUCGAUCUGAUAAAAAAGAUUAAUCUGCCACACAGCUUGAGACCAUCUACGGAUGCAGAGGCGGCAGCCUUCGGUGCCGCGAUAGCGCCAACGUUCUCAACUAUGACACGCAAAACGAGUGCUCCGUUGAAUGGAAUUGAUCAUG [A16G C18U C27U A28U A40C G50C U56A G84C C125A G143A U146G], the “polymerase ribozyme fitness (log ratio)” value was no more than -4.2.
Under GGAUCUUCUCGAUCUGACAAAAAAGAUGAAUCUGCCACAAAGUUUGAGAGCAACUUAGGAUGCAGAGGCGGCAGCCUUCGGGGGCGCGAUAGUGCCAACGUUCUCAACUAUGACACGCAAAACGCGUGCUCCGUUGAAUGGACUUUAUCAUG [A16G C27U A28G C43U U53A C57A U82G C93U G143C] stands no more than -4.2; under GGAUCUUCUCGAUCUGACAAAAAAGACAAAUUUGCCACAAAGCUUGAGAGCAUCUUCGGAUGCAGAGGCGGAAGCUUUCGGUGGGGCGAUAGCGCCAACGUUCUCAUCUAUGACACGCAAAACGCGUGCUCCGUUGAAUGGAGUUUAUCAUG [A16G C32U C72A C76U C85G A107U], no more than -4.2; under GGAUCUUCUCGAUCUGACAAAAAAGACAAAUCUGCCACAAAGAUUGAGAGCACCUUCGGAUGCAGAGGCAGCGGCCUUCGGUGGCGCGAUAGCGCCAACGUUCUCAACUAUGACACGCAAAACGCGUGCUCCGUUGAAUGGAGUUUAUCAUG [A16G C43A U53C G70A A73G], no more than -4.2.
Turning to GGAUCUUCUCGAUCUGAUAAAAAAGACAAUUCUGUCACAAAGCUUGAGAGCAUCAUCGGAUGCAGAGGCGCCAGCCUUCGGUGGCGCGAUAGUGCCCACGUUCUCAACUAUGACAAGCAAAACGCGUGCUCCGUUGAAUGUAGUUUAUCAUG [A16G C18U A30U C35U U55A G71C C93U A97C C116A G141U], the “polymerase ribozyme fitness (log ratio)” value is no more than -4.2.
With GGAUCUUCUCGAUCUGACAAAAAAGACAAAUCUGCCACAAAGAUUGAGAGCAUCAUCGGAUGCAGAGGCGGCAGCCUUCCGUGGCGCGAUAGCGCCAACGUUCUCAACUAUGACACUCAAAACGCGUGCUCCCUUGAAUGGAGUUUAUCAUG [A16G C43A U55A G80C G117U G133C] the figure was no more than -4.2; with GGAUCUUCUCGAUCUGACAAAAAAGACAAAUCUGUCACAAAGCUUGAGAGCAUCUUCGGAUGCAGAGGCGGCAGCCUUCGGUGGCGCGAUAGCGCCAACGUUCUCAACUAUGACACGCAAAACGCGUGCUCCGUUGAAUGGAGUUUAUCAUG [A16G C35U], -1.36; with GGAUCUUCUCGAUCUGACAAAAAAGACAAAUCUGUCACAAAGCUUGAGAGCAUCUUCGGAUGCAGAGGCGGCAGCCUUCGGUGGCGCGAUAGCGCCAACGUUCUCAACUAUGACAGGCAAAACGCGUGCUCCGUUGAAUGGAGUUUAUCAUG [A16G C35U C116G], -1.98.
With GGAUCUUCUCGAUCUGACAAAAAAGACAAAUCUGCCACAAAGCUUGAGAGCAUCUUCGGAUGCAGAGGCGGCAGCCUUCGGUGGCGCGAUUGCGCCAACGUUCUCAACUAUGACACGCAAAACGCGUGCUCCGUUGAAUGGAGUUUAUCAUG [A16G A91U] the figure was no more than -4.2; with GGAUCUUCUCGAUCUGACAAAAAAGAAAAAUCUGGCACAAAGAUUGAGAGCAUCUGCCGAUGCAGAGGCGGCAGCCUUCGGUGGCGCGAUAGUGCCAACGUUCUCAACUAUGACACCCCAUACGCGUGCUCCGUUAAAUGGAGUUUAUCAUG [A16G C27A C35G C43A U56G G58C C93U G117C A119C A121U G136A], no more than -4.2.
